The record followed here is the supplement of paper PMC5998384.

Data set [1] concerns HeLa Kyoto. Description: solubility in G1/S (NP-40 vs SDS abundance) (log2 ratio); higher = more soluble. The conditions noted are these: cell cycle stage: G1/S.
Data set [2] has as its system HeLa Kyoto. Description: melting temperature (median over replicates), in situ; higher = more thermally stable.
Data set [3] has as its system HeLa Kyoto. Description: solubility change mitosis vs G1/S (difference of NP-40 vs SDS log2 ratios) (log2 ratio difference); higher = more soluble in mitosis.
Data set [4] has as its system HeLa Kyoto. As to the kind of experiment: thermal stability score vs G1/S (z-score of summed log2 fold changes over temperatures); higher = more thermally stable than in G1/S.
Where [5] appears, read: cell cycle stage: early G1 (4.5 h after nocodazole release).
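Throughout, for melting temperature (median over replicates), in situ: HeLa Kyoto cells synchronized by double thymidine or nocodazole block, proteins quantified by TMT10plex mass spectrometry, three independent biological replicates.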
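Throughout, for solubility change mitosis vs G1/S (difference of NP-40 vs SDS log2 ratios): synchronized HeLa Kyoto cells (double thymidine block for G1/S, nocodazole release for mitosis), protein amounts in NP-40 versus SDS lysates quantified by mass spectrometry, three biological replicates.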
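Throughout, for solubility in G1/S (NP-40 vs SDS abundance): HeLa Kyoto cells arrested at G1/S by double thymidine block, proteins quantified by TMT10plex mass spectrometry in mild NP-40 versus SDS extracts, three biological replicates.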
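Throughout, for thermal stability score vs G1/S (z-score of summed log2 fold changes over temperatures): synchronized HeLa Kyoto cells, proteins quantified by TMT10plex mass spectrometry, three biological replicates, mitosis taken 0.5 h after nocodazole release, G1/S directly after double thymidine block.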

For the sequence “MASEEASLRALESLMTEFFHDCTTNERKREIEELLNNFAQQIGAWRFCLYFLSSTRNDYVMMYSLTVFENLINKMWLGVPSQDKMEIRSCLPKLLLAHHKTLPYFIRNKLCKVIVDIGRQDWPMFYHDFFTNILQLIQSPVTTPLGLIMLKTTSEELACPREDLSVARKEELRKLLLDQVQTVLGLLTGILETVWDKHSVTAATPPPSPTSGESGDLLSNLLQSPSSAKLLNQPIPILDVESEYICSLALECLAHLFSWIPLSASITPSLLTTIFHFARFGCDIRARKMASVNGSSQNCVSGQERGRLGVLAMSCINELMSKNCVPMEFEEYLLRMFQQTFYLLQKITKDNNAHTVKSRLEELDESYIEKFTDFLRLFVSVHLRRIESYSQFPVVEFLTLLFKYTFHQPTHEGYFSCLDIWTLFLDYLTSKIKSRLGDKEAVLNRYEDALVLLLTEVLNRIQFRYNQAQLEELDDETLDDDQQTEWQRYLRQSLEVVAKVMELLPTHAFSTLFPVLQDNLEVYLGLQQFIVTSGSGHRLNITAENDCRRLHCSLRDLSSLLQAVGRLAEYFIGDVFAARFNDALTVVERLVKVTLYGSQIKLYNIETAVPSVLKPDLIDVHAQSLAALQAYSHWLAQYCSEVHRQNTQQFVTLISTTMDAITPLISTKVQDKLLLSACHLLVSLATTVRPVFLISIPAVQKVFNRITDASALRLVDKAQVLVCRALSNILLLPWPNLPENEQQWPVRSINHASLISALSRDYRNLKPSAVAPQRKMPLDDTKLIIHQTLSVLEDIVENISGESTKSRQICYQSLQESVQVSLALFPAFIHQSDVTDEMLSFFLTLFRGLRVQMGVPFTEQIIQTFLNMFTREQLAESILHEGSTGCRVVEKFLKILQVVVQEPGQVFKPFLPSIIALCMEQVYPIIAERPSPDVKAELFELLFRTLHHNWRYFFKSTVLASVQRGIAEEQMENEPQFSAIMQAFGQSFLQPDIHLFKQNLFYLETLNTKQKLYHKKIFRTAMLFQFVNVLLQVLVHKSHDLLQEEIGIAIYNMASVDFDGFFAAFLPEFLTSCDGVDANQKSVLGRNFKMDRDLPSFTQNVHRLVNDLRYYRLCNDSLPPGTVKL [XPO6]”, the “solubility in G1/S (log2)” value in the data set with HeLa Kyoto [1] is -0.281. Besides, the melting temperature with HeLa Kyoto [2] (cell cycle stage: G1/S) was 49.6 °C; with HeLa Kyoto [2] (cell cycle stage: mitosis) it was 50 °C. Moreover, the “solubility change mitosis (log2)” value in the data set with HeLa Kyoto [3] is -0.202. The thermal stability score with HeLa Kyoto [4] (setting [5]) is 0.528; with HeLa Kyoto [4] (cell cycle stage: mitosis), 0.436.

Regarding “MASEKPLAAVTCTAPVNIAVIKYWGKRDEELVLPINSSLSVTLHQDQLKTTTTAVISKDFTEDRIWLNGREEDVGQPRLQACLREIRCLARKRRNSRDGDPLPSSLSCKVHVASVNNFPTAAGLASSAAGYACLAYTLARVYGVESDLSEVARRGSGSACRSLYGGFVEWQMGEQADGKDSIARQVAPESHWPELRVLILVVSAEKKLTGSTVGMRASVETSPLLRFRAESVVPARMAEMARCIRERDFPSFAQLTMKDSNQFHATCLDTFPPISYLNAISWRIIHLVHRFNAHHGDTKVAYTFDAGPNAVIFTLDDTVAEFVAAVWHGFPPGSNGDTFLKGLQVRPAPLSAELQAALAMEPTPGGVKYIIVTQVGPGPQILDDPCAHLLGPDGLPKPAA [MVD]”, in the data set with HeLa Kyoto [1], the “solubility in G1/S (log2)” value was 0.321. Also, the melting temperature with HeLa Kyoto [2] (cell cycle stage: G1/S) and in the data set with HeLa Kyoto [2] (cell cycle stage: mitosis) was 52.6 °C each time. The “solubility change mitosis (log2)” value with HeLa Kyoto [3] is -0.138. The thermal stability score in the data set on HeLa Kyoto [4] (setting [5]) is -0.632; with HeLa Kyoto [4] (cell cycle stage: mitosis), -0.962.
